Consider three substances from patent US7566447B2, “Biocides” (Iogenetics, LLC, priority 2003, dated 2009).

Data set [1] has as its system Caco-2 Host Cells. In words: Host cell toxicity assay by LDH release (CYTOTOX 96). To be noted: control medium alone for 2 h, 0-5% non toxic, 5-10% mild toxicity. It counts as cell-based, human. How it is done:
Host cell toxicity assay was performed by measuring the release of lactate dehydrogenase (LDH) in the medium using a CYTOTOX 96 Non-Radioactive Cytotoxicity Assay kit (Promega, Madison, Wis.). Toxicity was therefore classified as non toxic 0-5% LDH release and mild toxicity 5-10% LDH release (ref).
Background: LDH leaks from cells whose membrane has failed.

Data set [2] has as its system Caco-2 cells. Briefly: Caco-2 cell viability by trypan blue dye exclusion. It counts as cell-based, human. To be noted: 24 hrs, uninoculated control cells 91 %. How it is done: (§1) This experiment describes the effects of PLA2 on sporozoite infectivity. Briefly, sporozoites were incubated in an isotonic saline solution (37° C., 30 min) with a range of concentrations of PLA2 isolated from honey bee venom (Sigma-Aldrich Corp., St. Louis, Mo., 1.5 U/μg protein). Control sporozoites were identically incubated in buffer containing concentration-matched BSA but no PLA2. Sporozoites were then washed in medium and inoculated onto replicate Caco-2 human intestinal epithelial cell monolayers. 24 h later, infection was quantified in test and control monolayers by immunofluorescence assay as described herein and the mean percent reduction of infection calculated. […] Percent viability of Caco-2 cells following exposure to PLA2-treated sporozoites (86%) was similar to that of uninoculated control cells (91 %) at 24 hrs, as determined by trypan blue dye exclusion. […] Through fusion of PLA2 to a monoclonal antibody with a high affinity for sporozoites, such as 1E10 or 4H9, lethal concentrations of biocide are deliverable to the sporozoite surface with relatively low amounts of biocide being used.

In data set [3] the test system is C. parvum sporozoites. In words: Effect of PLA2 on sporozoite infectivity for Caco-2 monolayers (immunofluorescence assay). It counts as cell-based, Cryptosporidium parvum. How it is done: as §1

As for b-defensin 1 [βD1], the “% LDH release” value in data set [1] (10 μg/ml) is reported as 0.8 ± 1.0%.

In the case of cathelicidin, the “% LDH release” value in data set [1] (10 μg/ml) is 1.6 ± 0.3 %; in data set [1] (100 μg/ml), 5.6 ± 0.9 %.

In the case of bee-venom phospholipase A2 [PLA2], the “Percent viability of Caco-2 cells following exposure to PLA2-treated sporozoites” value in data set [2] stood at 86%. For the same substance, in data set [3] (preliminary data), the “PLA2 concentration effective in neutralization” value is reported as under 0.02 units/ml. In data set [3] (sporozoites incubated 37° C., 30 min, Caco-2 monolayers, 24 h, P<0.0005), the “PLA2 concentration achieving highly significant reduction of sporozoite infectivity” value is 0.014 U/ml.
